Laboratory results as given in US20240287144A1.

Columns and labels:
Test in all cases: cell-based or functional assay
Set-up in all cases: unit not given beside the values
[1] = biological target: HIV-1 Env of virus 001428-2.42.SG3 (Clade C) (HIV-1 strain 001428-2.42)
[2] = biological target: HIV-1 Env of virus 3301.V1.C24.SG3 (Clade AC) (HIV-1 strain 3301.V1.C24)
[3] = biological target: HIV-1 Env of virus 242-14.SG3 (Clade AG) (HIV-1 strain 242-14)
[4] = biological target: HIV-1 Env of virus ZM106.9.SG3 (Clade C) (HIV-1 strain ZM106.9)
[5] = biological target: HIV-1 Env of virus HxB2.DG.SG3 (Clade B) (HIV-1 strain HxB2)
[6] = biological target: HIV-1 Env of virus DJ263.8.SG3 (Clade AG) (HIV-1 strain DJ263.8)
[7] = biological target: HIV-1 Env of virus CNE58.SG3 (Clade C) (HIV-1 strain CNE58)
[8] = biological target: HIV-1 Env of virus MW965.26.SG3 (Clade C) (HIV-1 strain MW965.26)
[9] = biological target: HIV-1 Env of virus 25925-2.22.SG3 (Clade C) (HIV-1 strain 25925-2.22)
[10] = biological target: HIV-1 Env of virus BG505.W6M.C2.T332N.SG3 (Clade A) (HIV-1 strain BG505)

**Q.** VRC01 (antibody) was tested. Which ID50 (virus neutralization, ctrl mAb; run with wk 6 sera) [1] did it give?
**A.** < 0.05

**Q.** What about the ID50 (virus neutralization, ctrl mAb; run with wk 18 sera) [1] of the same substance?
**A.** < 0.05

**Q.** What about the ID50 (virus neutralization, ctrl mAb; run with wk 6 sera) [2] of the same substance?
**A.** 0.305

**Q.** And the ID50 (virus neutralization, ctrl mAb; run with wk 18 sera) [2]?
**A.** 0.358

**Q.** What about the ID50 (virus neutralization, ctrl mAb; run with wk 6 sera) [3] of the same substance?
**A.** > 50

**Q.** And the ID50 (virus neutralization, ctrl mAb; run with wk 18 sera) [3]?
**A.** > 50

**Q.** What about the ID50 (virus neutralization, ctrl mAb; run with wk 6 sera) [4] of the same substance?
**A.** 0.472

**Q.** And the ID50 (virus neutralization, ctrl mAb; run with wk 18 sera) [4]?
**A.** 0.486

**Q.** And the ID50 (virus neutralization, ctrl mAb; run with wk 6 sera) [5]?
**A.** 0.07

**Q.** And the ID50 (virus neutralization, ctrl mAb; run with wk 18 sera) [5]?
**A.** < 0.05

**Q.** And the ID50 (virus neutralization, ctrl mAb; run with wk 6 sera) [6]?
**A.** 0.095

**Q.** And the ID50 (virus neutralization, ctrl mAb; run with wk 18 sera) [6]?
**A.** 0.127

**Q.** And the ID50 (virus neutralization, ctrl mAb; run with wk 6 sera) [7]?
**A.** 0.398

**Q.** What about the ID50 (virus neutralization, ctrl mAb; run with wk 18 sera) [7] of the same substance?
**A.** 0.435

**Q.** What about the ID50 (virus neutralization, ctrl mAb; run with wk 6 sera) [8] of the same substance?
**A.** 0.025

**Q.** And the ID50 (virus neutralization, ctrl mAb; run with wk 18 sera) [8]?
**A.** 0.041

**Q.** What about the ID50 (virus neutralization, ctrl mAb; run with wk 6 sera) [9] of the same substance?
**A.** 2.91

**Q.** What about the ID50 (virus neutralization, ctrl mAb; run with wk 18 sera) [9] of the same substance?
**A.** 1.07

**Q.** And the ID50 (virus neutralization, ctrl mAb; run with wk 6 sera) [10]?
**A.** 0.097

**Q.** And the ID50 (virus neutralization, ctrl mAb; run with wk 18 sera) [10]?
**A.** 0.068
